Test results published in patent US20170240645A1 (Genentech, published 2017).

Columns and labels:
[1] = target: T1, PMEL17 N-terminal deletion mutant Δ100 (human, UniProt P40967 101-661); test: immunoblot of cell lysates
T1 construct: the real construct lacks the N-terminal part; Tested in cell lysates by immunoblot
T1 sequence: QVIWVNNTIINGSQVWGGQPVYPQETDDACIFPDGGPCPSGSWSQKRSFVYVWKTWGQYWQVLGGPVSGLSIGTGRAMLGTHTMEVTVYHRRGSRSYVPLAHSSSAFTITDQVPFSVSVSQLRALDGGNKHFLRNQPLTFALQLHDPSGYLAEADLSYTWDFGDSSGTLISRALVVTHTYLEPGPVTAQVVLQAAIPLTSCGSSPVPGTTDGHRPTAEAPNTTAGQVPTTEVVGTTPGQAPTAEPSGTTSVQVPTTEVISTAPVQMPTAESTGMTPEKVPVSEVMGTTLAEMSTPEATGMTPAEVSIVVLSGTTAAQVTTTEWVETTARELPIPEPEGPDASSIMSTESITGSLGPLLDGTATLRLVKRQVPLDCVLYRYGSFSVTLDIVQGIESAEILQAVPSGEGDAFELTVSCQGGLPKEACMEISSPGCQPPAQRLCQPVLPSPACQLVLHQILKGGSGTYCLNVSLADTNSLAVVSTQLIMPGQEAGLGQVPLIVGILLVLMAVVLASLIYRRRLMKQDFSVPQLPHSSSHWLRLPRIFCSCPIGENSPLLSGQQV

[2] = target: T2, PMEL17 N-terminal deletion mutant Δ255 (human, UniProt P40967 256-661); test: immunoblot of cell lysates
T2 construct: the real construct lacks the N-terminal part; Tested in cell lysates by immunoblot
T2 sequence: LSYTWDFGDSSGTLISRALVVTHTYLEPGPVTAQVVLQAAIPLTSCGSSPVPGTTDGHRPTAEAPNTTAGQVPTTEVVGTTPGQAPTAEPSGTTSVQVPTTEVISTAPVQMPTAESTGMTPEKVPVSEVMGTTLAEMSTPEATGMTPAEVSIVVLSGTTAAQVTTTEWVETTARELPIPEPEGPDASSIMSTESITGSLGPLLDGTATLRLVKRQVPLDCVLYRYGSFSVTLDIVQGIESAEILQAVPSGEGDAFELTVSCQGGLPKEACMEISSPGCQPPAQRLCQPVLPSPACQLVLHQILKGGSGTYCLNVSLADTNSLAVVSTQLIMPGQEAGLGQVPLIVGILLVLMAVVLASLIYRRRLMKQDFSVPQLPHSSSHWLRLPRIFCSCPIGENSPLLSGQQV

[3] = target: T3, full-length human PMEL17 with an N-terminal gD tag (human, UniProt P40967 25-661); test: immunoblot of cell lysates
T3 construct: it is left out here; also called full-length PMEL17; N-terminal gD tagged PMEL17 (human)
T3 sequence: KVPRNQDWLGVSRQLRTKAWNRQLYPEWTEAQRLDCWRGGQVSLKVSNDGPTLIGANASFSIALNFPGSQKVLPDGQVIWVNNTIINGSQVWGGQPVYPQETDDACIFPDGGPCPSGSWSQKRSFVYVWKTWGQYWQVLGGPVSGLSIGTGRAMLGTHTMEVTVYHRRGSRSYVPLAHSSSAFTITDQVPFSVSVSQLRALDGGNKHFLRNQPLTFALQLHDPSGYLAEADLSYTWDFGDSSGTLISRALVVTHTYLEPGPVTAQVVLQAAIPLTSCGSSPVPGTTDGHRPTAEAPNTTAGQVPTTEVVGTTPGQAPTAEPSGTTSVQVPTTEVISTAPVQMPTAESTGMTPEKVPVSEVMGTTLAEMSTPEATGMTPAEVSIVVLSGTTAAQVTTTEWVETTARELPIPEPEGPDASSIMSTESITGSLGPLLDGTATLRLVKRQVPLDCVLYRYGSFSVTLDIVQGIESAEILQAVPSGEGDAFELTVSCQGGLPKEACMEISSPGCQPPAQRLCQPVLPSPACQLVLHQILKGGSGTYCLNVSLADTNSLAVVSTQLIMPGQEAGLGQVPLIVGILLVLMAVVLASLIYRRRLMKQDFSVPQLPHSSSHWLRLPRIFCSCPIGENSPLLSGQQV

[4] = target: T4, PMEL17 25-125 with an N-terminal gD tag and a C-terminal GPI anchor (human, UniProt P40967 25-125, C-terminal GPI anchor); test: FACS on transiently transfected 293 cells
T4 construct: C-terminal deletion, transiently expressed on 293 cells
T4 sequence: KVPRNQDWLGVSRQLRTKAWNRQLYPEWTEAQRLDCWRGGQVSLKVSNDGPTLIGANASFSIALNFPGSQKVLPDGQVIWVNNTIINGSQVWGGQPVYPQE
Source text: (§1) In addition, C-terminal deletions with an N-terminal gD tag and a C-terminal GPI anchor were transiently transfected into 293 cells and analyzed for antibody binding by FACS. The C-terminal deletions tested included PMEL172₅₋₁₂₅, PMEL17₂₅₋₁₀₅, PMEL17₂₅₋₈₅, PMEL17₂₅₋₆₅, and PMEL17₂₅₋₄₅.

[5] = target: T5, PMEL17 25-105 with an N-terminal gD tag and a C-terminal GPI anchor (human, UniProt P40967 25-105, C-terminal GPI anchor); test: FACS on transiently transfected 293 cells
T5 construct: C-terminal deletion, transiently expressed on 293 cells
T5 sequence: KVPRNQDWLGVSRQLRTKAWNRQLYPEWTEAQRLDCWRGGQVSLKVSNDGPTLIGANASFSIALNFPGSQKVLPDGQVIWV
Source text: as §1

[6] = target: T6, PMEL17 25-85 with an N-terminal gD tag and a C-terminal GPI anchor (human, UniProt P40967 25-85, C-terminal GPI anchor); test: FACS on transiently transfected 293 cells
T6 construct: C-terminal deletion, transiently expressed on 293 cells
T6 sequence: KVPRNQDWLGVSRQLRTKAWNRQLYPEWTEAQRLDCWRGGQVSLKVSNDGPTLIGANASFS
Source text: as §1

[7] = target: T7, PMEL17 25-65 with an N-terminal gD tag and a C-terminal GPI anchor (human, UniProt P40967 25-65, not fully specified; C-terminal GPI anchor); test: FACS on transiently transfected 293 cells
T7 construct: C-terminal deletion, transiently expressed on 293 cells
T7 chain: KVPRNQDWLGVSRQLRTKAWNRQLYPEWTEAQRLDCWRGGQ
Source text: as §1

B1: 17A9 (antibody, V domains shown)
VH: EVQLQQSGPELVKPGASMKISCKSSGYSFTRYTMNWVKQSHGKNLEWIGVINPYNGGTVYNQKFKGKATLTVDKSSSTAYMELLSLTSEDSAVYYCARTDYDGYAMDYWGQGTSVTVSS
VL: DVQITQSPSYLAASPGETITINCRATKSISKYLAWYQEQPGKTNNLLIYSGSTLQSGIPSRFSGSGSGTDFTLTISSLEPEDFAMYYCQQHNEYPYTFGSGTKLEIK
notes: Mouse monoclonal antibody from a hybridoma (mice immunized with PMEL17 ECD-Fc); also called anti-PMEL17 antibody 17A9
binding result [1]: no binding | binding result [2]: no binding | binding result [3]: binds | binding result [4]: binds | binding result [5]: no binding | binding result [6]: no binding | binding result [7]: no binding
